Assay results published in patent publication US20080044815A1, “Genetic Screen for Interaction Interface Mapping” (priority 2003, published 2008).
Positions count from the first letter of the chain named. Entries after “also recorded” stand apart in the source; their conditions may differ. One block for each molecule: values may come before it.

Key:
GST-MKK4(ED) = experiment: In vitro phosphorylation (activation) of immunoprecipitated JNK by constitutively active MKK4; assay type: biochemical; settings: [32P]-ATP, relative to autophosphorylation
Experimental: FIG. 15a is a representation showing that JNK mutants were not activated by constitutively-active MKK4 (MKK4(ED)) or MKK7. […] JNK proteins were immunoprecipitated from transfected cell lysates, and immunoprecipitates were used as the substrates in in vitro kinase assays with GST-MKK4(ED). Following separation by SDS-PAGE, activation of JNK and mutant proteins was assessed by autoradiography (upper panel) (n=2). Coomassie Blue staining (lower panel) confirmed substrate loading.
FLAG-JNK1 proteins were immunoprecipitated by addition of anti-FLAG M2 (SIGMA) and incubation for 1 h on ice and then addition of Protein G-Sepharose and incubation at 4° C. for 2 h with rotation. Immunocomplexes were washed three times with lysis buffer, then once with reaction buffer (20 mM HEPES, 20 mM MgCl2, 20 mM β-glycerophosphate, 500 μM DTT, 100 μM Na3VO4; pH 7.6). For assays of JNK activity, the washed complexes were resuspended in 40 μL of reaction buffer containing 10 μg GST-c-Jun (1-135), 20 μM ATP and 1 μCi [λ-^32P]ATP and incubated at 30° C. for 30 min. Reactions were stopped by addition of 3× SDS-PAGE Sample Buffer and proteins were separated by SDS-PAGE. JNK activity towards GST-c-Jun (1-135) was visualized by autoradiography and quantitated by Cerenkov counting. For assays of JNK activation, the washed beads were incubated with 30 μL of reaction buffer containing 20 μM ATP, 5 μCi [λ-^32P]ATP and 1 μg of GST-MKK4(ED) at 30° C. for 1 h with occasional mixing. After removal of the supernatant, the beads were washed in 200 μl ice-cold lysis buffer and then heated for 5 min at 100° C. in 15 μL of 3× SDS-PAGE sample buffer, prior to separation by SDS-PAGE. Gels were Coomassie-stained, dried and used for autoradiography. Gel bands corresponding to FLAG-JNK were excised from the gels and their radioactivity quantitated by Cerenkov counting. Where immunoprecipitated GST-MKK7β1 was used to activate JNK, reactions were performed as above, but with 1 μCi [λ-^32P]ATP and incubation at 30° C. for 30 min.

TI-JIP = molecular target: T1, TI-JIP (Homo sapiens, UniProt Q9UQF2); experiment: Yeast two-hybrid screening / β-galactosidase overlay assay of JNK1 point mutants for interaction with TI-JIP; assay type: cell-based; settings: single point mutants of JNK1, full-length expression confirmed by Western blot
T1 construct: Oligonucleotides encoding TI-JIP were annealed; expressed in transfected cells; host or cells: yeast diploids, RFY 206 (pSH18-34, pGILDA-TI-JIP) mated to PRT 49 (JNK mutants in pJG4-5)

MKK7 = molecular target: T2, MKK7 (Mus musculus, UniProt Q8CE90); experiment: Phospho-blotting for dual-phosphorylated JNK in COS cells co-transfected with MKK7; assay type: cell-based; settings: antibody to dual-phosphorylated JNK
T2 construct: expressed in transfected cells; host or cells: COS cells
T2 sequence (Q8CE90 1-419 isoform Q8CE90-2): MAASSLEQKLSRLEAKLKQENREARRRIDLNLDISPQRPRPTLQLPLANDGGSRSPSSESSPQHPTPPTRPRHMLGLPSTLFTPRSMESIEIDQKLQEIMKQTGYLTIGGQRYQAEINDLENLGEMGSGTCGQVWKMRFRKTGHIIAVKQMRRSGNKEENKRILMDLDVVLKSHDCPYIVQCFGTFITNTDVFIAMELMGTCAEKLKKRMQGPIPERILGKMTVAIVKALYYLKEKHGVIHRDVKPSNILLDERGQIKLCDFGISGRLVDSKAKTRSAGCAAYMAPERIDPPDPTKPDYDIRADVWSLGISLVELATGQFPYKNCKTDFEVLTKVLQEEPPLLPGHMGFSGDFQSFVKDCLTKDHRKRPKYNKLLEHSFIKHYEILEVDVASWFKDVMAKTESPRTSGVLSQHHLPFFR

GST-c-Jun(1-135) = experiment: In vitro kinase assay of FLAG-immunoprecipitated JNK1 from transfected COS cells towards GST-c-Jun(1-135); assay type: biochemical
Experimental: FIG. 14b is a representation showing a typical autoradiograph (upper panel) illustrating phosphorylation of GST-c-Jun(1-135) by wild-type (WT) JNK and mutants (n=2) for COS cells transfected as described in the legend to FIG. 14a. Transfected cells were incubated without sorbitol or exposed to hyperosmotic shock (0.5 M sorbitol, 30 min) prior to lysis. FLAG-tagged JNK1 and mutants were immunoprecipitated from cell lysates and then assayed for activity towards GST-c-Jun(1-135) using in vitro kinase assays. Coomassie Blue staining (lower panel) confirmed substrate loading.
FIG. 14c is a photographic representation showing a typical autoradiograph (upper panel) illustrating phosphorylation of GST-c-Jun(1-135) by wild-type (WT) JNK and mutants (n=2) for COS cells transfected as described in the legend to FIG. 14a, or co-transfected with a constitutively-active MEKK1 construct (CA-MEKK1). […]
FLAG-JNK1 proteins were immunoprecipitated by addition of anti-FLAG M2 (SIGMA) and incubation for 1 h on ice and then addition of Protein G-Sepharose and incubation at 4° C. for 2 h with rotation. […] JNK activity towards GST-c-Jun (1-135) was visualized by autoradiography and quantitated by Cerenkov counting. […] Gel bands corresponding to FLAG-JNK were excised from the gels and their radioactivity quantitated by Cerenkov counting. […]

B2: Tyr-320-His: single point mutant of human JNK1 (SEQ ID NO: 1) (protein)
chain: MSRSKRDNNFYSVEIGDSTFTVLKRYQNLKPIGSGAQGIVCAAYDAILERNVAIKKLSRPFQNQTHAKRAYRELVLMKCVNHKNIIGLLNVFTPQKSLEEFQDVYIVMELMDANLCQVIQMELDHERMSYLLYQMLCGIKHLHSAGIIHRDLKPSNIVVKSDCTLKILDFGLARTAGTSFMMTPYVVTRYYRAPEVILGMGYKENVDLWSVGCIMGEMVCHKILFPGRDYIDQWNKVIEQLGTPCPEFMKKLQPTVRTYVENRPKYAGYSFEKLFPDVLFPADSEHNKLKASQARDLLSKMLVIDASKRISVDEALQHPHINVWYDPSEAEAPPPKIPDKQLDEREHTIEEWKELIYKEVMDLEERTKNGVIRGQPSPLAQVQQ
modifications: homo sapiens
phosphorylation/activation of JNK by active MKK4 (GST-MKK4(ED)): impaired in their activation

B4: Arg-309-Trp: single point mutant of human JNK1 (SEQ ID NO: 1) (protein)
chain: B2 chain with R309W, H320Y
modifications: homo sapiens
phosphorylation/activation of JNK by active MKK4 (GST-MKK4(ED)): impaired in their activation

Continued, in another order:

interaction of JNK1 mutant with TI-JIP (TI-JIP; listed as L131→R131): prevent interaction of JNK with TI-JIP | phosphorylation/activation of JNK by MKK7 (MKK7): impaired in their activation
B1: Leu-131-Arg: single point mutant of human JNK1 (SEQ ID NO: 1) (protein)
chain: B2 chain with L131R, H320Y
modifications: homo sapiens
phosphorylation/activation of JNK by active MKK4 (GST-MKK4(ED)): impaired in their activation | interaction of JNK1 mutant with TI-JIP (TI-JIP): incapable of interaction with TI-JIP; also recorded: did not interact with TI-JIP

phosphorylation/activation of JNK by MKK7 (MKK7): strongly phosphorylated by MKK7
B3: wildtype JNK1: FLAG-tagged wild-type human JNK1 (SEQ ID NO: 1) expressed from pCMV-FLAG-JNK1 (protein)
chain: B2 chain with H320Y
modifications: FLAG tag; homo sapiens
phosphorylation/activation of JNK by active MKK4 (GST-MKK4(ED)): increased the phosphorylation | increase in c-Jun phosphorylation relative to cells transfected with JNK alone (GST-c-Jun(1-135); COS cells co-transfected with constitutively-active MEKK1 (CA-MEKK1)): 240 fold | activation of c-Jun phosphorylation over corresponding unstimulated cells (GST-c-Jun(1-135); COS cells, hyperosmotic shock 0.5 M sorbitol, 30 min): 5.5 fold
